# Publication PMC12042621 (Structure (London, England : 1993), 2025)
# B1: S1-RBD-14_(E89K) (VHH)
# VHH: QVQLVESGGGLVQAGGSVRLSCAASGRSFSINPMGWFRQAPGKEREFVAAISWSGSKTVYVDSVKGRFSISRDNAKNTVYLQMNSLKPEDTAVYHCAVASRGPVYGANYVPGPHEYEYWGQGTQVTVS
# B2: S1-RBD-42_(E88K) (VHH)
# VHH: QVQLVESGGGLVQAGGSLRLSCVVSGSTFSNTFMDWYRQAPGKQREFVATISSGGTTNYAVFVKGRFTISRDGAKNTVYLQMNSLKPEDTAVYYCHAALPIGGDYWGQGTQVTVS
# Biological target: SARS-CoV-2 spike S1 (SARS-CoV-2, wild type (Wuhan-Hu-1), UniProt P0DTC2)
# Test: SPR
binder,measurement,value
B1,Kd,0.3 nM
B2,Kd,0.1 nM
